# B1: Wnt3a: Wnt3a protein, positive control of the Wnt signaling pathway (protein, UniProt P56704 19-352, looked up)
# Protein Wnt-3a: SYPIWWSLAVGPQYSSLGSQPILCASIPGLVPKQLRFCRNYVEIMPSVAEGIKIGIQECQHQFRGRRWNCTTVHDSLAIFGPVLDKATRESAFVHAIASAGVAFAVTRSCAEGTAAICGCSSRHQGSPGKGWKWGGCSEDIEFGGMVSREFADARENRPDARSAMNRHNNEAGRQAIASHMHLKCKCHGLSGSCEVKTCWWSQPDFRAIGDFLKDKYDSASEMVVEKHRESRGWVETLRPRYTYFKVPTERDLVYYEASPNFCEPNPETGSFGTRDRTCNVSSHGIDGCDLLCCGRGHNARAERRREKCRCVFHWCCYVSCQECTRVYDVHTCK
# B2: DKK1: Dickkopf-related protein 1, natural inhibitor of the Wnt signaling pathway, antagonist ligand of LRP6, negative control (protein)
# chain: TLNSVLNSNAIKNLPPPLGGAAGHPGSAVSAAPGILYPGGNKYQTIDNYQPYPCAEDEECGTDEYCASPTRGGDAGVQICLACRKRRKRCMRHAMCCPGNYCKNGICVSSDQNHFRGEIEETITESFGNDHSTLDGYSRRTTLSSKMYHTKGQEGSVCLRSSDCASGLCCARHFWSKICKPVLKEGQVCTKHRRKGSHGLEIFQRCYCGEGLSCRIQKDHHQASNSSRLHTCQRH
# How the values were obtained:
# Type in all cases: cell-based, human
# [1] = test system: Wnt signaling pathway, SW480 cell line; test: Real-time PCR of LRP6 and downstream genes of the Wnt signaling pathway; conditions: treated against untreated
# Protocol: (§1) In this example, the effect of exemplary peptides on the expression of LRP6 and downstream genes of the Wnt signaling pathway, such as β-catenin, cyclin D1, and C-MYC, was evaluated at transcription level using real-time PCR and at translation level using Western blotting. The Gapdh gene was used as the reference gene. The expression fold change of more than 2 times (treated cell against untreated cell) was defined as increasing expression, and cases with a fold change of 0.5 to 2 were unchanged, and cases with expression fold change less than 0.5 were considered as a reduction in expression.
# [2] = test system: Wnt signaling pathway, HUVEC cell line; test: as above; conditions: treated against untreated
# Protocol: as §1
# [3] = test system: Wnt signaling pathway, HCT116 cell line; test: as above; conditions: treated against untreated
# Protocol: as §1
# [4] = test system: HCT116; test: Cell cycle analysis by flow cytometry (DNA content); conditions: HCT116, 24 hours
# Protocol: (§2) In this example, the effect of exemplary peptides on the cell cycle was determined through flow cytometry and measurement of DNA content in cells. In this experiment, HCT116, SW480, and HUVEC cell lines were cultured in 24-well plates and treated with 1 mM of each exemplary peptide for 24 hours.
# (§3) The cell proliferation index may be calculated by dividing the percentage of cells present in the S and G2 stages by the percentage of cells in the G1, S, and G2 stages. […] Also, the proliferation index in SW480 and HCT116 cell lines decreased after treatment with exemplary peptides (SEQ ID NOs: 1-4). On the other hand, the decrease in the proliferation index of HUVEC cells was smaller than that of SW480 and HCT116 cell lines.
# [5] = test system: HUVEC; test: as above; conditions: 24 hours
# Protocol: as §2, §3
# [6] = test system: SW480; test: as above; conditions: SW480, 24 hours
# Protocol: as §2, §3
# [7] = test system: Wnt signaling pathway, HUVEC cell line; test: Western blotting of LRP6 and β-catenin proteins with signal densitometry; conditions: Western blot
# Protocol: as §1
# Also, the effect of exemplary peptides on the levels of LRP6 and β-catenin proteins in the β-catenin/Wnt signaling pathway was investigated by Western blotting. Also, each protein's relative expression was determined through signal densitometry of each Western blot band. FIG. 11A illustrates relative expression β-actin, β-catenin, and LRP6 in SW480, HCT116, and HUVEC cell lines, consistent with one or more exemplary embodiments of the present disclosure. Referring to FIG. 11A, the relative expressions of β-catenin and LRP6 in SW480 and HCT116 were higher than HUVEC as a normal cell.
# [8] = test system: Wnt signaling pathway, SW480 cell line; test: as above; conditions: SW480, Western blot
# Protocol: as §1
# (§4) Also, the effect of exemplary peptides on the levels of LRP6 and β-catenin proteins in the β-catenin/Wnt signaling pathway was investigated by Western blotting. Also, each protein's relative expression was determined through signal densitometry of each Western blot band.
# [9] = test system: Wnt signaling pathway, HCT116 cell line; test: as above; conditions: HCT116, Western blot
# Protocol: as §1, §4
molecule,measurement,setting,value
B1,expression of C-MYC gene,[1],increasing
same,expression of LRP6 gene,[1],increasing
same,expression of cyclin D1 gene,[1],increasing
same,expression of β-catenin gene,[1],increasing
same,expression of C-MYC gene,[2],did not change
same,expression of LRP6 gene,[2],did not change
same,expression of cyclin D1 gene,[2],did not change
same,expression of β-catenin gene,[2],did not change
same,expression of C-MYC gene,[3],increasing
same,expression of LRP6 gene,[3],increasing
same,expression of cyclin D1 gene,[3],increasing
same,expression of β-catenin gene,[3],increasing
same,S and G2/M stage percentage,[4],higher percentage
same,S and G2/M stage percentage,[5],higher percentage
same,S and G2/M stage percentage,[6],higher percentage
B2,level of LRP6 protein,[7],did not alter
same,S and G2/M stage percentage,[4],decreased
same,percentage of cells in the G0/G1 stage,[4],increased
same,S and G2/M stage percentage,[5],decreased
same,percentage of cells in the G0/G1 stage,[5],increased
same,S and G2/M stage percentage,[6],decreased
same,percentage of cells in the G0/G1 stage,[6],increased
same,level of LRP6 protein,[8],did not alter
same,level of LRP6 protein,[9],did not alter

# Source: patent US11572394B2, “Peptides for targeting LRP6-overexpressed cells” (PASTEUR INSTITUTE OF IRAN, priority 2020, dated 2023)
